Among the targets are human CLDN18.2-mRFP L35A (human); human CLDN18.2-mRFP L72A (human); human CLDN18.2-mRFP L70A (human); human CLDN18.2-mRFP L49A (human); human CLDN18.2-mRFP S52A (human); human CLDN18.2-mRFP S31A (human); human CLDN18.2-mRFP Q47A (human); human CLDN18.2-mRFP L76A (human); human CLDN18.2-mRFP V40A (human); human CLDN18.2-mRFP Y66A (human); human CLDN18.2-mRFP R51A (human); human CLDN18.2-mRFP W30A (human); human CLDN18.2-mRFP N38A (human); human CLDN18.2-mRFP Q29A (human); human CLDN18.2-mRFP Q77A (human); human CLDN18.2-mRFP Q33A (human); human CLDN18.2-mRFP F60A (human); human CLDN18.2-mRFP N37A (human).

Common to all, as to experiment: FACS, transfected HEK293, 10 µg/ml antibody;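 also: antibody binding detected by flow cytometry with FITC-labelled anti-human IgG secondary, gated on RFP-positive cells, mutant signal relative to wild-type CLDN18.2-mRFP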

Chain of human CLDN18.2-mRFP Y66A (human) (chain, as listed by the source Y66A Y66A limits assumed): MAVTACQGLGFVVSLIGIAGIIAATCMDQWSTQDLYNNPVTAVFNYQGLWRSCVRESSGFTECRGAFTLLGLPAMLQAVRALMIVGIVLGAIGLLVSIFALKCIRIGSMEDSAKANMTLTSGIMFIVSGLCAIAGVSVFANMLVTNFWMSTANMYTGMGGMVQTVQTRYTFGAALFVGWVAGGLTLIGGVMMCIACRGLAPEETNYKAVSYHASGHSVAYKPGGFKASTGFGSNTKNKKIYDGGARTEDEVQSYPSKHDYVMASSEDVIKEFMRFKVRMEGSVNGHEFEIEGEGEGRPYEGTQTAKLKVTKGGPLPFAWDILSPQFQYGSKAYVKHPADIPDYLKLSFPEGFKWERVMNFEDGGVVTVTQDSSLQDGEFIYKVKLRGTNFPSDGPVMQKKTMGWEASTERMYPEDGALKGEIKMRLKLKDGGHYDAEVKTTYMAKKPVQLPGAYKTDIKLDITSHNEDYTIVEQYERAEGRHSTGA
Chain of human CLDN18.2-mRFP L70A (human) (chain, as listed by the source L70A L70A limits assumed): as the sequence (chain, as listed by the source Y66A Y66A limits assumed) above, with A66Y, L70A counted along it
Chain of human CLDN18.2-mRFP Q77A (human) (chain, as listed by the source Q77A Q77A limits assumed): as the sequence (chain, as listed by the source Y66A Y66A limits assumed) above, with A66Y, Q77A counted along it
Chain of human CLDN18.2-mRFP W30A (human) (chain, as listed by the source W30A W30A limits assumed): as the sequence (chain, as listed by the source Y66A Y66A limits assumed) above, with W30A, A66Y counted along it
Chain of human CLDN18.2-mRFP N38A (human) (chain, as listed by the source N38A N38A limits assumed): as the sequence (chain, as listed by the source Y66A Y66A limits assumed) above, with N38A, A66Y counted along it
Chain of human CLDN18.2-mRFP L76A (human) (chain, as listed by the source L76A L76A limits assumed): as the sequence (chain, as listed by the source Y66A Y66A limits assumed) above, with A66Y, L76A counted along it
Chain of human CLDN18.2-mRFP V40A (human) (chain, as listed by the source V40A V40A limits assumed): as the sequence (chain, as listed by the source Y66A Y66A limits assumed) above, with V40A, A66Y counted along it
Chain of human CLDN18.2-mRFP L72A (human) (chain, as listed by the source L72A L72A limits assumed): as the sequence (chain, as listed by the source Y66A Y66A limits assumed) above, with A66Y, L72A counted along it
Chain of human CLDN18.2-mRFP R51A (human) (chain, as listed by the source R51A R51A limits assumed): as the sequence (chain, as listed by the source Y66A Y66A limits assumed) above, with R51A, A66Y counted along it
Chain of human CLDN18.2-mRFP L35A (human) (chain, as listed by the source L35A L35A limits assumed): as the sequence (chain, as listed by the source Y66A Y66A limits assumed) above, with L35A, A66Y counted along it
Chain of human CLDN18.2-mRFP L49A (human) (chain, as listed by the source L49A L49A limits assumed): as the sequence (chain, as listed by the source Y66A Y66A limits assumed) above, with L49A, A66Y counted along it
Chain of human CLDN18.2-mRFP S31A (human) (chain, as listed by the source S31A S31A limits assumed): as the sequence (chain, as listed by the source Y66A Y66A limits assumed) above, with S31A, A66Y counted along it
Chain of human CLDN18.2-mRFP Q33A (human) (chain, as listed by the source Q33A Q33A limits assumed): as the sequence (chain, as listed by the source Y66A Y66A limits assumed) above, with Q33A, A66Y counted along it
Chain of human CLDN18.2-mRFP S52A (human) (chain, as listed by the source S52A S52A limits assumed): as the sequence (chain, as listed by the source Y66A Y66A limits assumed) above, with S52A, A66Y counted along it
Chain of human CLDN18.2-mRFP F60A (human) (chain, as listed by the source F60A F60A limits assumed): as the sequence (chain, as listed by the source Y66A Y66A limits assumed) above, with F60A, A66Y counted along it
Chain of human CLDN18.2-mRFP Q29A (human) (chain, as listed by the source Q29A Q29A limits assumed): as the sequence (chain, as listed by the source Y66A Y66A limits assumed) above, with Q29A, A66Y counted along it
Chain of human CLDN18.2-mRFP N37A (human) (chain, as listed by the source N37A N37A limits assumed): as the sequence (chain, as listed by the source Y66A Y66A limits assumed) above, with N37A, A66Y counted along it
Chain of human CLDN18.2-mRFP Q47A (human) (chain, as listed by the source Q47A Q47A limits assumed): as the sequence (chain, as listed by the source Y66A Y66A limits assumed) above, with Q47A, A66Y counted along it
Experimental for human CLDN18.2-mRFP F60A: (§1) The transfected HEK293-CLDN18.2 or HEK293-CLDN18.1 cell were resuspended in PBS with 2% BSA at density of 10\hat{ }5/well, 100 μl/well. […] Next, cells were washed 3 times by FACS washing buffer and incubated with 100 μl/well goat anti-hIgG (H+L)-FITC (1:200 dilution) at 4° C. for another 30 min. Finally, cells were washed 3 times by FACS washing buffer and analyzed by Flow Cytometry. To analyze binding to CLDN18.2 transfected cells, the RFP positive cells were used for control gating.
(§2) Subsequently, these plasmids of mutants and wild-type CLDN18.2-mRFP were transfected into HEK293 cell.
Experimental for human CLDN18.2-mRFP L35A: as §1, §2
Experimental for human CLDN18.2-mRFP L49A: as §1, §2
Experimental for human CLDN18.2-mRFP L70A: as §1, §2
Experimental for human CLDN18.2-mRFP L72A: as §1, §2
Experimental for human CLDN18.2-mRFP L76A: as §1, §2
Experimental for human CLDN18.2-mRFP N37A: as §1, §2
Experimental for human CLDN18.2-mRFP N38A: as §1, §2
Experimental for human CLDN18.2-mRFP Q29A: as §1, §2
Experimental for human CLDN18.2-mRFP Q33A: as §1, §2
Experimental for human CLDN18.2-mRFP Q47A: as §1, §2
Experimental for human CLDN18.2-mRFP Q77A: as §1, §2
Experimental for human CLDN18.2-mRFP R51A: as §1, §2
Experimental for human CLDN18.2-mRFP S31A: as §1, §2
Experimental for human CLDN18.2-mRFP S52A: as §1, §2
Experimental for human CLDN18.2-mRFP V40A: as §1, §2
Experimental for human CLDN18.2-mRFP W30A: as §1, §2
Experimental for human CLDN18.2-mRFP Y66A: as §1, §2

B1: 59A9-C (antibody, human IgG1, V domains shown)
VH: QITQKESGPGILQPSQTLSLTCSLSGFSLSTYFIGVGWIRQPSGKGLEWLAHIWWNDNKYYNTALKSRLTISKDTSNNQVFLKIASVDTADTATYYCARMGSGAWFTYWGQGTLVTVSA
VL: DIVMTQSPSSLTVTAGEKVTMSCKSSQSLLNSGNQKNYLTWYQQKPGQPPKLLIYWASTRESGVPDRFTGSGSGTDFTLTISSVQAEDLAVYYCQNDYYYPLTFGSGTKLEIK
notes: also called chimeric 59A9
In the case of B1, the “binding percentage vs wild-type CLDN18.2” value in the experiment with human CLDN18.2-mRFP L35A worked out at 75.4%; in the experiment with human CLDN18.2-mRFP L72A, 53%; with human CLDN18.2-mRFP L70A, 82.1%; with human CLDN18.2-mRFP L49A, 2.32%; with human CLDN18.2-mRFP S52A, 99%; in the experiment with human CLDN18.2-mRFP S31A, 76.8%. Further, the “binding percentage vs wild-type CLDN18.2” value with human CLDN18.2-mRFP Q47A came out at 57.5%; in the experiment with human CLDN18.2-mRFP L76A, 52.1%; with human CLDN18.2-mRFP V40A, 128%; with human CLDN18.2-mRFP Y66A it was 52.5%; with human CLDN18.2-mRFP R51A, 22.1%; with human CLDN18.2-mRFP W30A it was 3.2%. Moreover, the “binding percentage vs wild-type CLDN18.2” value was 57.6% in the experiment with human CLDN18.2-mRFP N38A; 54.8% with human CLDN18.2-mRFP Q29A; 63.4% in the experiment with human CLDN18.2-mRFP Q77A; 59.8% in the experiment with human CLDN18.2-mRFP Q33A; 64.4% with human CLDN18.2-mRFP F60A; 60.7% with human CLDN18.2-mRFP N37A.
